{
  "source": "patent US20210063414A1",
  "about": "“METHODS FOR PREVENTING AND/OR TREATING BONE LOSS CONDITIONS BY MODULATING IRISIN” (Dana-Farber Cancer Institute, Inc., priority 2018, published 2021)",
  "molecules": {"B1": {"name": "irisin: secreted cleaved form of FNDC5; recombinant human/mouse irisin with C-terminal his tag produced in HEK293 cells (protein)", "chain": "DSPSAPVNVTVRHLKANSAVVSWDVLEDEVVIGFAISQQKKDVRMLRFIQEVNTTTRSCALWDLEEDTEYIVHVQAISIQGQSPASEPVLFKTPREAEKMASKNKDEVTMKE", "modifications": "left off: small tags and cut ends", "notes": "secreted cleaved form of FNDC5; recombinant human/mouse irisin with C-terminal his tag produced in HEK293 cells"}},
  "key": {"[1]": {"target": "T1, MLO-Y4 cell surface proteins (Mus musculus, UniProt P52825)", "T1 construct": "endogenous in cells; host or cells: MLO-Y4", "T1 sequence (P52825 26-658)": "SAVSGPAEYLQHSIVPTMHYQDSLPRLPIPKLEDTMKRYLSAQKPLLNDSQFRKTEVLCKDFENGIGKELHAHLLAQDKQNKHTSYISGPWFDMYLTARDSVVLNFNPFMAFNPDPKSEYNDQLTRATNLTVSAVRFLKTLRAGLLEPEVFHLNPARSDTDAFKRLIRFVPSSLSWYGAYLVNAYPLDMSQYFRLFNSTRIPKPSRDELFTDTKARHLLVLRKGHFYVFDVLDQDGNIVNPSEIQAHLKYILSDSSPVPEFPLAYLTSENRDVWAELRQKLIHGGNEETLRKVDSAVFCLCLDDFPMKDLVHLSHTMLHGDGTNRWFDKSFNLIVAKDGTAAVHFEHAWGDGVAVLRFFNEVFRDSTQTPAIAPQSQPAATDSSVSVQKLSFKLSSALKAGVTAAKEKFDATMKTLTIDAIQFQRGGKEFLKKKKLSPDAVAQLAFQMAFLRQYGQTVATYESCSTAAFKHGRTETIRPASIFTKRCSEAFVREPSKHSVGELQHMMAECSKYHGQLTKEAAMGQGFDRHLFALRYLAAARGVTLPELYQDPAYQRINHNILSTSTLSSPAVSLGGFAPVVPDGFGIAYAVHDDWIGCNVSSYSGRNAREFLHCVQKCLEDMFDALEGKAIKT", "experiment": "Crosslinking/co-immunoprecipitation/mass spectrometry (TMT quantitative proteomics) to identify irisin receptors", "format": "binding", "details": "co-precipitated protein Cpt2 (CPT2_MOUSE)", "in_short": "(§1)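 Relative protein abundance came from 6-plex TMT MS3 quantitation on an Orbitrap Fusion Lumos, after in-gel trypsin digestion of Coomassie-stained SDS-PAGE lanes. Input was a Ni-NTA pulldown (250 mM imidazole elution) of lysates from murine MLO-Y4 cells. These cells were treated on ice with His-tagged irisin or adipsin (10 nM, 20 min) in serum-free medium, then crosslinked with 1.5 mM DTSSP for 30 min.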"}, "[2]": {"target": "T2, MLO-Y4 cell surface proteins (Mus musculus, UniProt Q9CY64)", "T2 construct": "endogenous in cells; host or cells: MLO-Y4", "T2 sequence (Q9CY64 3-295)": "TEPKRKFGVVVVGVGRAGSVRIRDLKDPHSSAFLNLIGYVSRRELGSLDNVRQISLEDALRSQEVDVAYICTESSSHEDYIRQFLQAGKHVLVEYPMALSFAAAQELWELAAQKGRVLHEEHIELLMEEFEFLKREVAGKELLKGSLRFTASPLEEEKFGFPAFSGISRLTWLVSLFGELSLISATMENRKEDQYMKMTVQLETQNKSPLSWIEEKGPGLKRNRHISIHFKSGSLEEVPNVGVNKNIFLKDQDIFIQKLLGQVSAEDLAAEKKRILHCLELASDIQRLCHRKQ", "experiment": "Crosslinking/co-immunoprecipitation/mass spectrometry (TMT quantitative proteomics) to identify irisin receptors", "format": "binding", "details": "co-precipitated protein Blvra (BIEA_MOUSE)", "in_short": "as §1"}},
  "data": [
    {"molecule": "B1", "values": [
      {"measurement": "TMT signal-to-noise ratio", "setting": "[1]", "result": 96.8301},
      {"measurement": "irisin/adipsin TMT signal-to-noise ratio", "setting": "[1]", "result": 0.545},
      {"measurement": "TMT signal-to-noise ratio", "setting": "[2]", "result": 86.0306},
      {"measurement": "irisin/adipsin TMT signal-to-noise ratio", "setting": "[2]", "result": 0.284}
    ]}
  ]
}
